Source: patent US20240018237A1 (SICHUAN KELUN BIOTECH BIOPHARMACEUTICAL, published 2024)
Where two headings read alike, the source gives them in different places.

Experiments:
[1] = molecular target: T1, human ROR1 (full-length, on the cell surface) (human, UniProt Q01973 30-937); experiment: flow cytometry on HT29 cells, MFI against antibody concentration
T1 construct: whole, on cells; the tumour cell lines carry their own ROR1; also called Ba/F3-ROR1 cells; Jeko-1
Source text: (§1) The affinity of the candidate antibodies to ROR1 on the surface of human cells was detected by flow cytometry. In addition to the Ba/F3-ROR1 overexpression cells, human mantle cell lymphoma cell line Jeko-1 (ATCC, Cat. No.: CRL-3006), human colon cancer cell line HT-29 (ATCC, Cat. No.: HTB-38), human lung cancer cell line A549 (ATCC, Cat. No.: CCL-185) were also used for the binding assay. The anti-human ROR1 antibody UC961 (for sequence, see WO2018237335A1) with mouse or human IgG1 Fc was used as a positive control, and the anti-2,4,6-trinitrophenol antibody (ATCC) with the corresponding mouse or human IgG1 Fc was used as a negative control. Mouse IgG isotype control (Thermo Fisher, Cat. No.: 31903) was also used as a negative control.

[2] = molecular target: T1, human ROR1 (full-length, on the cell …); experiment: flow cytometry on A549 cells, MFI against antibody concentration
Source text: as §1

[3] = molecular target: T1, human ROR1 (full-length, on the cell …); experiment: flow cytometry on Jeko-1 cells, MFI against antibody concentration
Source text: as §1

[4] = molecular target: T1, human ROR1 (full-length, on the cell …); experiment: cell-based or functional assay
[5] = molecular target: T2, human ROR2 extracellular domain (ECD) protein (human, UniProt Q01974 34-403); experiment: ELISA on coated human ROR2 ECD protein (1 ug/mL), OD at 450 nm
T2 construct: extracellular domain; Bought protein; also called human ROR2 ECD protein; Sino Biologicals 16133-H08H
Procedure: It was confirmed by ELISA using extracellular domain (ECD) protein of human ROR2 that the binding specificity of the candidate antibodies to human ROR1 was higher than that of human ROR2. The specific method was as follows: 1 μg/mL human ROR2 extracellular domain (ECD) protein (Sino Biologicals, Cat. No.: 16133-H08H) was added in a 96-well ELISA plate (Thermo Fisher, Cat. No.: 5129) at 100 μL/well, for coating overnight at 4° C. 200 μL of washing buffer (1×TBS containing 0.05% Tween-20) was used to wash 3 times, different concentrations of eight purified mouse-anti-human ROR1 candidate antibodies and UC961 were added at 100 μL, incubated at 37° C. for 1 hour, and mouse-anti-human ROR2 antibody (R&D systems, Cat. No.: MAB2064) was used as a positive control. Washing was performed 3 times with 200 μL of washing buffer, 100 μL of anti-human IgG (Rockland Inc, Cat. No. 609-1304) or anti-mouse IgG secondary antibody (Rockland Inc, Cat. No. 610-1304) diluted at a ratio of 1:10000 were added to each well, incubated at 37° C. for 1 hour. Washing was performed 3 times with 200 μL of washing buffer, 100 μL of TMB (Thermo Fisher, Cat. No.: TMBW-1000-01) was added for color development in the dark for 10 minutes, then 100 μL of stop solution (Thermo Fisher, Cat. No.: 13361-100-10) was added to stop the color development, and reading was carried out by microplate reader at 450 nm.

[6] = molecular target: T3, human ROR1 ECD protein (human, UniProt Q01973 30-406); experiment: BLI (Octet), antibody on AHC sensor, ROR1 ECD in solution
T3 construct: range 30-406; Expressed in Expi293 or ExpiCHO cells; also called Recombinant human ROR ECD

[7] = molecular target: T1, human ROR1 (full-length, on the cell …); experiment: flow cytometry, Jeko-1 cells
Procedure: (§2) The affinities of the purified anti-human ROR1 chimeric antibodies binding to the Ba/F3-ROR1, Jeko-1, HT-29 and A549 cells were analyzed by flow cytometry. The specific experimental steps were as follows: the Ba/F3-ROR1, Jeko-1, HT-29 and A549 cells were incubated with the purified chimeric antibodies of different concentration gradients on ice for 30 minutes, and the anti-ROR1 antibody UC961 with human IgG1 and the anti-TNP antibody were used as positive and negative controls respectively.

[8] = molecular target: T1, human ROR1 (full-length, on the cell …); experiment: flow cytometry, A549 cells
Procedure: as §2

[9] = molecular target: T1, human ROR1 (full-length, on the cell …); experiment: flow cytometry, HT-29 cells
Procedure: as §2

[10] = molecular target: T3, human ROR1 ECD protein; experiment: BLI (Octet), antibody on AHC sensor, ROR1 ECD in solution, 1:1 model
Source text: Octet ForteBio is widely used in the detection of antibody-antigen dynamic affinity. This method was used to determine the dynamic affinities of the candidate chimeric antibodies 3D8-Chi, 19F6-Chi and 38F8-Chi and the positive control antibody UC961 to human ROR1.

[11] = molecular target: T1, human ROR1 (full-length, on the cell …); experiment: flow cytometry, Ba/F3-ROR1 cells
Procedure: as §2

[12] = molecular target: T1, human ROR1 (full-length, on the cell …); experiment: flow cytometry, Ba/F3-ROR1 cells; remark: listed apart in the source
[13] = molecular target: T1, human ROR1 (full-length, on the cell …); experiment: flow cytometry, Jeko-1 cells; remark: listed apart in the source
Procedure: (§3) The affinities of the anti-human ROR1 humanized antibodies to Ba/F3-ROR1, Jeko-1, HT-29 and A549 cells were detected by flow cytometry. The specific experimental steps were as follows: the BaBF3-ROR1, Jeko-1, HT-29 and A549 cells were incubated with the purified humanized antibodies of different concentration gradients on ice for 30 minutes, and the anti-ROR1 antibody UC961 with human IgG1 and the anti-TNP antibody were used as positive and negative controls, respectively.

[14] = molecular target: T3, human ROR1 ECD protein; experiment: BLI (Octet), antibody on AHC sensor, ROR1 ECD in solution, 1:1 model; remark: listed apart in the source
Procedure: The dynamic affinities of humanized molecules 19F6-Hu35V1, 3D8-HuC24 and 38F8-Hu57 and positive control antibody UC961 to human ROR1 ECD protein were determined by Octet ForteBio method.

[15] = molecular target: T1, human ROR1 (full-length, on the cell …); experiment: flow cytometry, A549 cells; remark: listed apart in the source
Procedure: as §3

[16] = molecular target: T1, human ROR1 (full-length, on the cell …); experiment: cell-based or functional assay; remark: listed apart in the source
[17] = molecular target: T1, human ROR1 (full-length, on the cell …); experiment: flow cytometry, HT-29 cells; remark: listed apart in the source
Procedure: as §3

[18] = molecular target: T1, human ROR1 (full-length, on the cell …); experiment: flow cytometry, Ba/F3-ROR1 cells; remark: listed apart in the source
Procedure: as §3

T1 sequence (Q01973 30-937): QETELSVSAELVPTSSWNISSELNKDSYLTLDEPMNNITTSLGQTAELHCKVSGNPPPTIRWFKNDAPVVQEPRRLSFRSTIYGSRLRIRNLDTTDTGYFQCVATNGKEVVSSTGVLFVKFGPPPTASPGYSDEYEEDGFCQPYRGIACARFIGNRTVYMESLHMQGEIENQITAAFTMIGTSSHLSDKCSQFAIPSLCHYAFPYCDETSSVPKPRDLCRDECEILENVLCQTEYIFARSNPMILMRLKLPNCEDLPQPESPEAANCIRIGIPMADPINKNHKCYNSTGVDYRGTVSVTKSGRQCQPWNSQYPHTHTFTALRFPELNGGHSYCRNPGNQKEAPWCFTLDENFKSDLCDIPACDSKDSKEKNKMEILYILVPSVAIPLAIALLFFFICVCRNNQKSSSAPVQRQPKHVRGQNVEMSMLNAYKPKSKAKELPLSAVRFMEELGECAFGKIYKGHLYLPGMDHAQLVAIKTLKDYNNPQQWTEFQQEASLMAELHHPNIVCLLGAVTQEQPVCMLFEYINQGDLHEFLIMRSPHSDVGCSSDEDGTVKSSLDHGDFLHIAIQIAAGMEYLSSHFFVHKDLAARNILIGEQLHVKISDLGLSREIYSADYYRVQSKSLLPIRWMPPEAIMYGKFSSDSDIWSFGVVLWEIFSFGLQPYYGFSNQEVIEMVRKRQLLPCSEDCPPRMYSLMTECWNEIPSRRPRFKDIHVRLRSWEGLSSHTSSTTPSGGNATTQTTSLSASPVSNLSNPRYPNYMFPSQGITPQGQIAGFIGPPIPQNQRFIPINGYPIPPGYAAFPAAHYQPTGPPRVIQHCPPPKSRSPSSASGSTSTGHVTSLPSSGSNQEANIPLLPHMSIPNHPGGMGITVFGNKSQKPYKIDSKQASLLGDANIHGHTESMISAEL
T3 sequence (Q01973 30-406): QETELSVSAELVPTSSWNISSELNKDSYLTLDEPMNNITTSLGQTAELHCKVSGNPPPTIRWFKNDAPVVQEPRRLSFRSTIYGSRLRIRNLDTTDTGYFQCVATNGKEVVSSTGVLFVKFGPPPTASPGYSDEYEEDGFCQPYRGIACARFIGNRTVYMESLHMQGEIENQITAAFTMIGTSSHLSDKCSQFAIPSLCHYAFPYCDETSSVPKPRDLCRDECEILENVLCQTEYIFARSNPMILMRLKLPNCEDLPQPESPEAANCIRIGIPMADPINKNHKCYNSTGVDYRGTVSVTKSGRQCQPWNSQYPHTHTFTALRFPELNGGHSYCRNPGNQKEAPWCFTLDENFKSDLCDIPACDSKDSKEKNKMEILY
T2 sequence (Q01974 34-403): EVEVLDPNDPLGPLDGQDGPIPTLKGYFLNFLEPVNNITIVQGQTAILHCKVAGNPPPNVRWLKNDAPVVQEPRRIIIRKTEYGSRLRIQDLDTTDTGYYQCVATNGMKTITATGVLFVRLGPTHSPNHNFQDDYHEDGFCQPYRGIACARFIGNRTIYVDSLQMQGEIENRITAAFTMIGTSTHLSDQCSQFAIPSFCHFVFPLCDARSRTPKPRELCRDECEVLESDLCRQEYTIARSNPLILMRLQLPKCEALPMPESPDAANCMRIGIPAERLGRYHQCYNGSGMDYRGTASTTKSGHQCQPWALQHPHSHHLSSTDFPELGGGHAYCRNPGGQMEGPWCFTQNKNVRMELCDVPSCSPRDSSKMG

fold stronger affinity than UC961 (by KD) [6]	EC50 [7]	EC50 [8]	EC50 [9]	Kd [10]	koff [10]	kon [10]	EC50 [11]	EC50 [13]	Kd [14]	koff [14]	kon [14]	EC50 [15]	EC50 [17]	Binder	EC50 of ADCC killing of Ba/F3-ROR1 cells by NK92MI-mCD16a-hFceRI cells [16]	further results
2 fold	0.619 nM	0.28 nM	0.463 nM	8.09 nM	0.00381 s⁻¹	471000 M⁻¹ s⁻¹	0.62 nM							3D8-Chi (antibody, human IgG1, kappa, V domains shown, Variable regions of 3D8.2.3 on human IgG1 / kappa constant regions; also called anti-human ROR1 chimeric antibody 3D8-Chi) VH: EVKLVESGGGLVKPGGSLKLSCAASGFTFSSYAMSWVRQTPEKRLEWVASINSGGSTYYPDSVKGRFTISRDNARNILYLQMSSLRSEDTAMYYCARVNYYGYGDYAMDYWGQGTSVTVSS VL: DIKMTQSPSSMYASLGERVTITCKASQDINSYLSWFQQKPGKSPKTLIYRANRLVDGVPSRFSGSGSGQDYSLTISSLEYEDMGIYYCLQYDEFPYTFGGGTNLEIKR		
								0.04 nM	26.1 nM	0.0153 s⁻¹	586000 M⁻¹ s⁻¹	0.29 nM	0.17 nM	3D8-HuC24 (antibody, human IgG1, kappa, V domains shown, humanized, human IgG1 / kappa) VH: EVQLVESGGGLVQPGGSLRLSCAASGFTFSSYAMSWVRQAPGKGLEWVASINSGGSTYYPDSVKGRFTISRDNAKNSLYLQMNSLRAEDTAVYYCARVNYYGYGDYAMDYWGQGTLVTVSS VL: DIQMTQSPSSLSASVGDRVTITCQASQDISNYLTWFQQKPGKSPKTLIHRANRLVTGVPSRFSGSGSGTDFTFTISSLQPEDIATYYCLQYDEFPYTFGGGTKVEIKR	0.28 nM	EC50 [18]: 0.23 nM

Second part, the binder before the results:

Binder	fold stronger affinity than UC961 (by KD) [6]	EC50 [7]	EC50 [8]	EC50 [9]	Kd [10]	koff [10]	kon [10]	EC50 [11]	EC50 [13]	Kd [14]	koff [14]	kon [14]	EC50 [15]	EC50 [17]	EC50 of ADCC killing of Ba/F3-ROR1 cells by NK92MI-mCD16a-hFceRI cells [16]	further results
Murine antibody 19F6.2.3 (antibody, V domains shown, Hybridoma antibody) VH: DVQLQESGPGLVKPSQSLSLTCTVTGYSITSDYAWNWIRQFPGNKLEWMGYISYSGSIRYNPSLKSRISITRDTSKNQFFLQLNSVTTEDTATYYCARGEITYYFDYWGQGTTLTVSS VL: DIKMTQSPASLSMAIGEKVTIRCITTTDIDDDMNWYQQKPGEPPKLLISEGNTLRPGVPSRFSSSGYGTDFVFTIENMVSEDVADYYCLQSNDLPLTFGAGTKLELK																EC50 (read off the curve) [1]: ~20 ng/mL; EC50 (read off the curve) [2]: ~10 ng/mL; EC50 (read off the curve) [3]: ~8 ng/mL; activity of inducing internalization on Jeko-1 cells (Mab-ZAP, by IC50), fold over UC961 [4]: 23.4 fold; binding result [5]: no binding (tested: about 5000 ng/ml)
19F6-Chi (antibody, human IgG1, kappa, V domains shown, Variable regions of 19F6.2.3 on human IgG1 / kappa constant regions; also called anti-human ROR1 chimeric antibody 19F6-Chi) VH: DVQLQESGPGLVKPSQSLSLTCTVTGYSITSDYAWNWIRQFPGNKLEWMGYISYSGSIRYNPSLKSRISITRDTSKNQFFLQLNSVTTEDTATYYCARGEITYYFDYWGQGTTLTVSS VL: DIKMTQSPASLSMAIGEKVTIRCITTTDIDDDMNWYQQKPGEPPKLLISEGNTLRPGVPSRFSSSGYGTDFVFTIENMVSEDVADYYCLQSNDLPLTFGAGTKLELKR	34.6 fold	0.271 nM	0.087 nM	0.266 nM	0.456 nM	0.000514 s⁻¹	1.13e+06 M⁻¹ s⁻¹	0.325 nM								
38F8-Chi (antibody, human IgG1, kappa, V domains shown, Variable regions of 38F8.1.1 on human IgG1 / kappa constant regions; also called anti-human ROR1 chimeric antibody 38F8-Chi) VH: EVKLVESGGDLVKPGGSLKLSCTASGFTFSNYAMSWVRQTPEKRLEWVASISSGGPTYYPDSVKGRFTVSRDNARNILYLQMSSLRSEDTAMYYCARGYRYDVNWYFDVWGAGTSVTVSS VL: DIKMTQSPSSMYASLGERVTITCKASQDINSYLTWFQQKPGKSPKTLIHRANRLVDGVPSRFSGSGSGQDYSLTISSLEYEDMGIYYCLQYDEFPYTFGGGTKLEIKR	5 fold	0.563 nM	0.091 nM	0.22 nM	3.17 nM	0.00299 s⁻¹	942000 M⁻¹ s⁻¹	0.416 nM								
19F6-Hu35V1 (antibody, human IgG1, kappa, V domains shown, humanized, human IgG1 / kappa) VH: QVQLQESGPGLVKPSQTLSLTCTVSGYSITSDYAWNWIRQFPGKGLEWIGYISYSGSIRYNPSLKSRVTISRDTSKNQFSLKLSSVTAADTAVYYCARGEITYYFDYWGQGTLVTVSS VL: ETTLTQSPAFMSATPGDKVTISCKASTSIDDDMNWYQQKPGEPPKLIISEGNTLRPGIPPRFSSSGYGTDFTFTINKIKSEDAATYYCLQSNDLPLTFGQGTKLEIKR	5.4 fold								0.12 nM	1.61 nM	0.000863 s⁻¹	538000 M⁻¹ s⁻¹	0.08 nM	0.15 nM	0.31 nM	EC50 [12]: 0.17 nM; internalization activity in N87 cells (pHrodo dye), fold over UC961 [4]: ~7 fold
19F6-Hu14 (antibody, human IgG1, kappa, V domains shown, humanized, human IgG1 / kappa) VH: QVQLQESGPGLVKPSETLSLTCTVTGYSITSDYAWNWIRQPPGKGLEWMGYISYSGSIRYKPSLKDRITISRDTSKNQFSLKLSSVTAADTAVYYCARGEITYYFDYWGQGTLVTVSS VL: DIQMTQSPSSLSASVGDRVTITCQTSTDIDDDLNWYQQKPGKPPKLLISEGNTLETGVPSRFSGSGSGTDFTFTISSLQPEDIADYYCLQSNDLPLTFGAGTKLEIKR									0.12 nM				0.12 nM	0.1 nM		EC50 [12]: 0.62 nM
38F8-Hu57 (antibody, human IgG1, kappa, V domains shown, humanized, human IgG1 / kappa) VH: EVQLVESGGGLVQPGGSLRLSCAASGFTFSNYAMSWVRQAPEKRLEWVASISSGGPTYYPDSVKGRFTVSRDNSKNTLYLQMNSLRAEDTAVYYCARGYRYDVNWYFDVWGAGTMVTVSS VL: DIQMTQSPSSLSASVGDRVTITCQASQDISNYLTWFQQKPGKSPKTLIHRANRLVTGVPSRFSGSGSGTDYTFTISSLQPEDIAIYYCLQYDEFPYTFGGGTKVEIKR									0.07 nM	10 nM	0.00242 s⁻¹	241000 M⁻¹ s⁻¹	0.23 nM	0.33 nM	0.19 nM	EC50 [18]: 0.75 nM
